In patent US20050249750A1:
Where no end group is shown, it is not given here.

T1: DR molecule DRA1*0101/DRB1*0401 on transfected murine L cells (human), P01903
T1 chain 1: not shown
T1 chain 2: not shown

T2: DR molecule DRA1*0101/DRB1*0701 on transfected murine L cells (human), P01903
T2 chain 1: not shown
T2 chain 2: not shown

T3: soluble DR 2a (DRB5*0101) molecules isolated from L cells transfectant L416.3 (human), P01903
T3 chain 1: not shown
T3 chain 2: not shown

T4: soluble DR4 (DRB1*0401) class II molecules purified from BSM or PREISS EBV-B cells (human), P01903
T4 chain 1: not shown
T4 chain 2: not shown

T5: soluble DR 1 (DRB1*0101) class II molecules purified from HOM-2 EBV-B cells (human), P01903
T5 chain 1: not shown
T5 chain 2: not shown

T6: soluble DR 3 (DRB1*0301) class II molecules purified from WT49 EBV-B cells (human), P01903
T6 chain 1: not shown
T6 chain 2: not shown

T7: soluble DR 8 (DRB1*0801) class II molecules purified from BM9 EBV-B cells (human), P01903
T7 chain 1: not shown
T7 chain 2: not shown

T8: soluble DR 7 (DRB1*0701) class II molecules purified from EKR EBV-B cells (human), P01903
T8 chain 1: not shown
T8 chain 2: not shown


Columns and labels:
[1] = biological target: T1, DR molecule DRA1*0101/DRB1*0401 on …; test: FACS, biotinylated peptide 100 µg/ml on DR-transfected murine L cells
[2] = biological target: T2, DR molecule DRA1*0101/DRB1*0701 on …; test: as above
[3] = biological target: T3, soluble DR 2a (DRB5*0101) molecules …
[4] = biological target: T4, soluble DR4 (DRB1*0401) class II …; test: peptide competition ELISA, soluble DR 4, biotinylated indicator UD4
[5] = biological target: T5, soluble DR 1 (DRB1*0101) class II …; test: peptide competition ELISA, soluble DR 1, biotinylated indicator GFK(A)7
[6] = biological target: T4, soluble DR4 (DRB1*0401) class II …; test: peptide competition ELISA, soluble DR4, biotinylated indicator GFK(A)7
[7] = biological target: T6, soluble DR 3 (DRB1*0301) class II …; test: peptide competition ELISA, soluble DR 3, biotinylated indicator IAYD(A)5
[8] = biological target: T7, soluble DR 8 (DRB1*0801) class II …; test: peptide competition ELISA, soluble DR 8, biotinylated indicator GYR(A)6L
[9] = biological target: soluble DR 11 (DRB1*1101) class II molecules purified from SWEIG EBV-B cells (human), P01903; test: peptide competition ELISA, soluble DR 11, biotinylated indicator TT831-843
[10] = biological target: T8, soluble DR 7 (DRB1*0701) class II …; test: peptide competition ELISA, soluble DR 7, biotinylated indicator GFK(A)7, pH 5

Row | Binder | MFC (mean fluorescence channel) [1] | MFC (mean fluorescence channel) [2] | IC50 [3] | IC50 [4] | IC50 [5] | IC50 [6] | IC50 [7] | IC50 [8] | IC50 [9] | IC50 [10]
1 | DPNANPNVDPNANPNV (not fully specified (N-terminus)) [NH2 terminal biotinylated T1 peptide] | 18.9 MFC | 35.7 MFC |  |  |  |  |  |  |  | 
2 | DPNANPNVDPNANPNV (modifications not checked) |  |  | > 100 µM | > 100 µM | > 100 µM | > 100 µM | > 100 µM | > 100 µM | > 100 µM | > 100 µM
